Measurements published in patent US7229960B2, “Methods and compositions for inhibiting GRB7” (University of Vermont and State Agricultural College, priority 2000, dated 2007).
Entries after “also recorded” stand apart in the source; their conditions may differ. Non-standard residues stand in square brackets, D forms with d. No end group written: not given here. pY = N[C@@H](Cc1ccc(OP(=O)(O)O)cc1)C(=O)O

Tests used:
SH2 domain of human Grb7 = target: T1, SH2 domain of human Grb7 (Homo sapiens, UniProt Q14451); experiment: Phage ELISA, peptide-phage binding to Grb7-SH2 domain-GST; conditions: for Relative binding affinity for Grb7: ELISA binding assay, comparison among G7BPs; for Effect of mutation of G7BP-4 phage clone on binding to Grb7-SH2-GST: phage ELISA, compared with G7BP-4
T1 construct: The SH2 domain of human Grb7 containing a GST fusion tag; made in house; host or cells: E. coli
From the text: The G7BPs were identified using peptide phage display techniques. Two phage display libraries were created and screened that led to the identification of these peptides. The first library was a random peptide phage-display library containing more than 10^7 different cyclic decapeptides flanked at each end by regions of four amino acids, according to the following general motif: X4 C X10 C X4 (X=any amino acid residue, C=cysteine). […] The SH2 domain of human Grb7 containing a GST fusion tag was purified from an E. coli expression system. The random 10mer library was screened using standard phage display methodology (Smith GP. 1985. Science. 228:1315-7). The phage library was added to the target protein which was immobilized on glutathione Sepharose beads (Pharmacia). The unbound phage were removed with a series of washes and the bound phage were eluted by competitive elution with excess glutathione. These bound phage were allowed to infect E. coli in order to amplify the eluted phage. This screening process was repeated two times for a total of three rounds of screening. After the third round of screening, clones from the amplified phage were isolated and sequenced. Thirty-nine clones were characterized and all contained a Y-A/D/E-N motif, where the +2 position was enriched for alanine, aspartic acid, and glutamic acid. The second library, biased for this Y-A/D/E-N motif, was created in the same FuseV phage display system. This biased library contained over 10^6 different clones.
An ELISA binding assay was used to determine whether the peptide-phage bind specifically to the SH2 domain of Grb7, and not to the fusion protein (GST) or other SH2 domains that are homologous to Grb7. The overall methodology of an ELISA is well established. Four different proteins were bound to a polystyrene 96-well plate: Grb7-SH2 domain-GST, GST alone, Grb2-GST and BSA as a non-specific negative control. Preparations of the concentrated Grb7 peptide-phage clones were allowed to bind to these proteins. Non-specific binding was blocked by casein. Binding of phage was detected using an anti-phage antibody conjugated to horseradish peroxidase.
Mutational analysis of G7BP-4 has been conducted to determine which amino acid residues are important in peptide binding to Grb7-SH2 as well as to determine the size restriction of these peptides. The mutations for G7BP-4 include the following: (1) eliminating the 4 amino acids flanking the cysteines ([…], SEQ ID NO:35) referred to as G7BP4-No Arms (NA), (2) mutating the cysteines to serine residues ([…], SEQ ID NO:36), which are structurally very similar, referred to as G7BP4-Ser, (3) mutating the cysteines to valine residues ([…], SEQ ID NO:37), which is similar in structure and charge, and (4) a combination where the cysteines were mutated to serines and the 4 flanking amino acids were removed ([…], SEQ ID NO:38), referred to as G7BP-No Arms(NA)-Ser. The substitutions of valine and serine for cysteine will eliminate the peptides ability to form a disulfide loop. The mutations were created as a DNA oligo, ligated into the fuse5 vector, and expressed as a peptide-phage. The resultant phage were tested in a phage ELISA for their ability to bind to Grb7-SH2-GST. […] Variants of the G7BP-1, G7BP-2, G7BP-3, G7BP-5, G7BP-6 and G7BP-7 which similarly lack the 4 tracking amino acids on both ends can also bind specifically to Grb7. These peptides have the following amino acid sequences respectively: […]

Grb7-SH2-GST = Grb7-SH2-GST (Homo sapiens, UniProt Q14451); experiment: Competition ELISA, free synthetic peptide versus Grb7 binding peptide-phage on Grb7-SH2-GST; conditions: for Inhibition of G7-8NA peptide-phage binding to Grb7-SH2 / Inhibition of G7-18 peptide-phage binding to Grb7-SH2: free synthetic peptide at 1, 10, 100 uM
From the text: The G7-18 (FIG. 5A) and G7-8NA (FIG. 5B) peptide-phage were concentrated with standard polyethylene glycol precipitation methods and added to each well (1×10^6 phage/well) in the presence of synthetic peptides or without (control). G7-18 peptide-phage competitors were G7-18, G7-18NATE and G7-8 free synthetic peptides (FIG. 5A). G7-8NA peptide-phage competitors were G7-8, G7-8NA and G7-8NATE free synthetic peptides (FIG. 5B). The synthetic peptides were mixed at different concentrations (1, 10, 100 uM) with peptide-phage before adding to Grb7-SH2-GST. Unbound phage were washed away with Tween-TBS buffer and bound phage were detected with anti-M13-horseradish peroxidase (Amersham-Pharmacia Biotech) and ABTS substrate (Calbiochem). Phage was detected by anti-M13-HRP antibody conjugate and detected using ABTS substrate. Plates were read at OD405.

[1] = target: association of Grb7 with the ErbB family of receptors (Homo sapiens, UniProt Q14451); experiment: Co-immunoprecipitation of Grb7 with tyrosine phosphorylated ErbB family in heregulin-stimulated SKBR3 cell lysate; conditions: for Inhibition of association of Grb7 with the ErbB family: heregulin β1 stimulated SKBR3 lysate, anti-Grb7 IP, anti-phosphotyrosine at 185 kDa, densitometry
Chain of association of Grb7 with the ErbB family of receptors (Q14451 whole entry): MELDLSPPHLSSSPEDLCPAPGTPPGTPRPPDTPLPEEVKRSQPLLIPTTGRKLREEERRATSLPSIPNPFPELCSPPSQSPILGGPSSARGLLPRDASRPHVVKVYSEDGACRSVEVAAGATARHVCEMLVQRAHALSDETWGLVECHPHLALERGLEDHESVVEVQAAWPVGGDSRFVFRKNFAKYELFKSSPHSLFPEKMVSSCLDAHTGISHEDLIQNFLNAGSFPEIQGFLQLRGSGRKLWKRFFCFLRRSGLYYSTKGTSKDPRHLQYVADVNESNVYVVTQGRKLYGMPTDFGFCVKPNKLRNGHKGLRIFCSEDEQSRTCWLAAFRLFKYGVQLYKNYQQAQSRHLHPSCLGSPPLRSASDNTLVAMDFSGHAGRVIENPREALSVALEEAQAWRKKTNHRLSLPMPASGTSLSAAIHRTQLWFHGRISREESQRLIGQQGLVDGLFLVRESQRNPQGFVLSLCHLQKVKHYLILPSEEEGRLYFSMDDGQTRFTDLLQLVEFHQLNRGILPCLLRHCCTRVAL
Protocol: Two of the Grb7-binding peptides were tested for their ability to inhibit Grb7 from binding its known target molecules, such as ErbB2 and ErbB3, in whole cell extracts. Whole cell extracts were made from the cell line SKBR3, which overexpresses Grb7, ErbB2 and ErbB3. […] The immunoprecipitations were carried out with anti-Grb7 followed by western blot. The western blot was divided so the top half was incubated with anti-phosphotyrosine to detect the associated ErbB family that migrates at 185 kDa. The bottom half of western blot was incubated with anti-Grb7 as a loading control.

T1 sequence (Q14451 431-527 limits assumed): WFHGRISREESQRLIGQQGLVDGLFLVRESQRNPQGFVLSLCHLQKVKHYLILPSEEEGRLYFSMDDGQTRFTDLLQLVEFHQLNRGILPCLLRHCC
Chain of Grb7-SH2-GST (Q14451 431-527 limits assumed): as above

**Q.** With “C VFWG YAN DWL C (CVFGYANDWLC; Variant of G7BP-4) [G7BP-4NA]” as the substance, how does the “Relative binding affinity for Grb7” value (SH2 domain of human Grb7) read?
**A.** Its value is “lesser affinity”.

**Q.** And the “Effect of mutation of G7BP-4 phage clone on binding to Grb7-SH2-GST” value (“Effect of mutation of G7BP-4 phage clone” for short) (SH2 domain of human Grb7)?
**A.** The value was “did not effect its ability to bind”.

**Q.** What about the “Inhibition of G7-8NA peptide-phage binding to Grb7-SH2” value (Grb7-SH2-GST) of the same substance?
**A.** The value was “inhibition”.

**Q.** Which “Inhibition of Grb7 binding peptide-phage binding to Grb7-SH2” value (Grb7-SH2-GST; phage clone not specified, data not shown) does the source give for “DpYVPML (D[pY]VPML) [N1480, reference compound]” here?
**A.** The value was “No inhibition”.

**Q.** “GVSN C VFWG YAN DWL C SDYS (GVSNCVFWGYANDWLCSDYS; Peptide sequence from FuseV Phage Display) [G7BP-4]” was tested. Which “Relative binding affinity for Grb7” value (SH2 domain of human Grb7) did it give?
**A.** The value was “higher affinity”.

**Q.** What about the “Inhibition of G7-8NA peptide-phage binding to Grb7-SH2” value (Grb7-SH2-GST) of the same substance?
**A.** Its value is “inhibition”.

**Q.** And the “Inhibition of G7-18 peptide-phage binding to Grb7-SH2” value (Grb7-SH2-GST; listed as G7-8)?
**A.** Its value is “inhibits; also recorded: inhibition”.

**Q.** How did the “Effect of mutation of G7BP-4 phage clone” value (SH2 domain of human Grb7) turn out when “GVSNSVFGYANDWLSSDYS (Variant of G7BP-4) [G7BP4-Ser]” was run?
**A.** Its value is “reducing the binding capacity”.

**Q.** For “GVSNVVFGYANDWLVSDYS (Variant of G7BP-4) [SEQ ID NO:37, G7BP-4 with cysteines mutated to valine]”, which “Effect of mutation of G7BP-4 phage clone” value (SH2 domain of human Grb7) is on record?
**A.** The value was “reducing the binding capacity”.

**Q.** Which “Inhibition of association of Grb7 with the ErbB family” value [1] does the source give for “PQPEYVNQPD (Non-phosphorylated peptide which mimics ErbB2 site) [Y 139]” here?
**A.** Its value is “showed no competition”.

**Q.** How did the “Inhibition of G7-18 peptide-phage binding to Grb7-SH2” value (Grb7-SH2-GST) turn out when “RSTL C WFEG YDN TFP C KYFR (RSTLCWFEGYDNTFPCKYFR; Peptide sequence from FuseV Phage Display) [G7BP-5]” was run?
**A.** The value was “inhibition”.

**Q.** What about the “Level of inhibition of Grb7 co-immunoprecipitation with the ErbB family” value ([1]; 100 uM, data not shown) of the same substance?
**A.** Its value is “same levels of inhibition”.

**Q.** With “SVFGYANDWLS (Variant of G7BP-4) [G7BP-No Arms(NA)-Ser]” as the substance, how does the “Effect of mutation of G7BP-4 phage clone” value (SH2 domain of human Grb7) read?
**A.** The value was “reducing the binding capacity”.

**Q.** “Y1139 peptide: the Y1139 ErbB2-site peptide when it is phosphorylated (PQPEYVNQPD; not fully specified (residue 5))” was tested. Which “Inhibition of association of Grb7 with the ErbB family” value [1] did it give?
**A.** The value was “does compete”.

**Q.** Which “Inhibition of G7-8NA peptide-phage binding to Grb7-SH2” value (Grb7-SH2-GST; listed as G7-8NATE) does the source give for “^VFWG YAN DWL C^ (VFWGYANDWLC; cyclised thioether; Variant G7BP-4NATE)” here?
**A.** Its value is “inhibition; also recorded: to a lesser extent than seen with the disulfide containing peptides”.
